Test results from the supplement of paper PMC9732359.
± gives the uncertainty stated by the source.

Assay: protein stability index of a GFP-peptide fusion (yeast GPS) (PSI 1-4); higher = more stable; sorted into four equal gates, so the index is relative within each strain
Procedure, shortened: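 Tiled yeast protein peptides of 17 residues were each joined downstream of GFP, on plasmids that also express Cherry. The pooled library was maintained in yeast, and mid-log cultures in leucine-free medium were sorted into four equal gates on the GFP/Cherry ratio. Plasmids from every gate were amplified by PCR and sequenced on Illumina, with barcodes linking reads to strains. The protein stability index of a peptide is its gate-number-weighted read frequency summed over the gates.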

Row | Sequence | protein stability index (doa10∆) | protein stability index (pdr5∆) | protein stability index (san1∆) | protein stability index (ubr1∆)
1 | SIDNDFSEEKAEEFDFN [YAR002W/NUP60] | 3.19 ± 0.14 | 3.02 ± 0.11 | 3.17 ± 0.092 | 3.12 ± 0.1
2 | ATTSVMMVNNQTMQLIK [SRB6] | 3.09 ± 0.16 | 2.1 ± 0.17 | 2.12 ± 0.1 | 
3 | QFTKVIDEPIKSIMDGI [FAS1] | 1.86 ± 0.047 | 2.27 ± 0.078 | 2.54 ± 0.16 | 1.49 ± 0.072
4 | LDQVGVPKSIAKTLTYP [RPO21] | 2.74 ± 0.064 | 2.83 ± 0.051 | 2.65 ± 0.043 | 2.99 ± 0.06
5 | KKNRDKKIFGTGKRLAK [RPS24A] | 3.4 ± 0.05 | 3.23 ± 0.039 | 3.291 ± 0.028 | 3.26 ± 0.033
6 | IDSSNLPLQAQQQLYGG [SWI1] | 2.91 ± 0.057 | 3.1 ± 0.062 | 2.75 ± 0.077 | 2.87 ± 0.043
7 | MVMREETIKSLEDPYKY [CSN9] | 1.62 ± 0.08 | 1.66 ± 0.078 | 1.25 ± 0.2 | 1.73 ± 0.054
8 | KEVLPDLQNLNLNTDKL [YJL039C/NUP192] | 3.38 ± 0.1 | 2.94 ± 0.098 | 3.25 ± 0.097 | 2.64 ± 0.085
9 | SEISIIDATLKEELLRD [RRP45] | 2.44 ± 0.094 | 2.22 ± 0.1 | 2.3 ± 0.099 | 2.83 ± 0.11
10 | SPMLYKVPDISSDGQLK [BRR2] | 2.52 ± 0.047 | 2.56 ± 0.045 | 2.61 ± 0.054 | 2.58 ± 0.03
11 | AFETHYRRLFAKRLIHG [CDC53] | 2.46 ± 0.076 | 2.54 ± 0.071 | 2.8 ± 0.09 | 2.89 ± 0.071
12 | TTKMWPTNCPLRQFKTC [BRR2] | 2.41 ± 0.093 | 2.31 ± 0.095 | 2.01 ± 0.082 | 2.34 ± 0.086
13 | LEQDLHFENAKVIDLDT [YIL149C/MLP2] | 3.08 ± 0.18 | 3.32 ± 0.16 | 2.65 ± 0.23 | 3.13 ± 0.11
14 | VENDTFIERNFTPQEIE [FAS2] | 2.87 ± 0.083 | 2.32 ± 0.062 | 2.15 ± 0.068 | 3.18 ± 0.05
15 | GASVISLTKDKSIRKDT [SIR4] | 3 ± 0.065 | 3.23 ± 0.055 | 3.06 ± 0.076 | 3.13 ± 0.072
16 | RTLRRKGDINPEVSMIR [RPB2] | 3.11 ± 0.16 | 3.39 ± 0.13 | 2.79 ± 0.21 | 3.12 ± 0.076
17 | NIVQVFKKAAPSPISHV [RPB2] | 2.2 ± 0.11 | 2.33 ± 0.071 | 2.16 ± 0.075 | 2.09 ± 0.043
18 | LHLAVGKKWFEVSQFLI [NAS6] | 2.12 ± 0.076 | 1.63 ± 0.059 | 1.63 ± 0.091 | 1.51 ± 0.073
19 | DLSLLGYCDDIAAMVAQ [SIR2] | 2.56 ± 0.06 | 2.08 ± 0.043 | 2.82 ± 0.052 | 2.24 ± 0.041
20 | TPGELVTDDPIWMRGHG [RRP4] | 2.65 ± 0.19 | 2.9 ± 0.13 |  | 3.14 ± 0.15
21 | RLDILDPALLRPGRIDR [RPT6] | 2.79 ± 0.22 |  | 2.65 ± 0.12 | 
22 | GSTLNVSQMVAVVGQQI [RPO31] | 3.15 ± 0.14 | 2.94 ± 0.1 | 2.84 ± 0.16 | 2.82 ± 0.15
23 | PLLTKRKDLRDKLICSI [DIS3] | 2.55 ± 0.088 | 2.62 ± 0.071 | 2.31 ± 0.1 | 3.06 ± 0.13
24 | DANPSSQIIARNEEILR [SMC2] | 2.94 ± 0.08 | 2.79 ± 0.083 | 3.21 ± 0.076 | 2.76 ± 0.11
25 | TRPLTLSHGSLEHVLLV [FAS1] | 2.39 ± 0.068 | 2.72 ± 0.076 | 2.67 ± 0.068 | 3.12 ± 0.065
26 | RFKMERAGVTHVLSRLS [RET1] |  | 1.55 ± 0.18 | 1.2 ± 0.27 | 1.3 ± 0.23
27 | NIPQQQQMQPPNSSANN [GAL11] | 2.82 ± 0.062 | 2.9 ± 0.062 | 2.85 ± 0.048 | 2.75 ± 0.041

Row | Sequence | protein stability index (doa10∆) | protein stability index (pdr5∆) | protein stability index (san1∆) | protein stability index (ubr1∆)
28 | IALGEDIGKEMSLRHFG [RPN1] | 3.2 ± 0.088 | 3.07 ± 0.11 | 2.55 ± 0.2 | 3.34 ± 0.14
29 | VTLFQMAILLLYNDADV [CDC53] | 2.03 ± 0.057 | 1.79 ± 0.051 | 1.67 ± 0.099 | 1.96 ± 0.041
30 | VNDTVKIDLASGKITDF [RPS4A] | 3.07 ± 0.12 | 3.17 ± 0.1 | 3.26 ± 0.12 | 2.71 ± 0.15
31 | KELAELKVQKLSRPSLP [RPL35A] | 2.56 ± 0.045 | 2.92 ± 0.052 | 2.5 ± 0.061 | 2.74 ± 0.048
32 | WRILKEDYAIVTKGGTV [PRP28] | 3.47 ± 0.27 | 3.2 ± 0.29 | 3.26 ± 0.11 | 3.41 ± 0.17
33 | PYFPGGSIAMARVLFDD [CYT1] | 2.29 ± 0.14 | 1.88 ± 0.1 | 2.61 ± 0.11 | 2.69 ± 0.093
34 | ERNEQEREIMNDHSKSA [SWI3] | 3.27 ± 0.069 | 3.33 ± 0.066 | 3.1 ± 0.092 | 3.48 ± 0.084
35 | DDVYRPAAESKIFTPNL [SNF5] | 2.82 ± 0.085 | 3.09 ± 0.11 |  | 3.23 ± 0.19
36 | KVVNGNSADAAYAQVEI [FAS2] | 2.53 ± 0.063 | 2.67 ± 0.07 | 2.14 ± 0.068 | 2.42 ± 0.057
37 | LSRKPSDNKKRSGSNAA [RPC82] | 2.92 ± 0.06 | 3.31 ± 0.064 | 3.03 ± 0.045 | 3.03 ± 0.044
38 | ALPHVEINQVSLALVIR [RGR1] | 1.91 ± 0.12 | 3 ± 0.22 | 2.24 ± 0.13 | 2.71 ± 0.086
39 | AAIRQPTRYVLIRNVGT [POP1] | 1.64 ± 0.073 | 2.07 ± 0.083 | 1.77 ± 0.11 | 1.31 ± 0.053
40 | SKNSPAEDDVIIPQDIL [YJR042W/NUP85] | 3.19 ± 0.13 | 2.96 ± 0.12 | 3.07 ± 0.12 | 3.36 ± 0.19
41 | TSHYQNYHPNASITPYK [RPN4] | 2.84 ± 0.081 | 3.11 ± 0.074 | 2.94 ± 0.055 | 2.89 ± 0.063
42 | RRFKNGFQTGSAKATSA [RPL37B] | 3.02 ± 0.066 | 3.08 ± 0.079 | 3.39 ± 0.09 | 3.18 ± 0.06
43 | EALVERRRAFKRSQKKH [RPB4] | 3.12 ± 0.099 | 3.2 ± 0.081 | 3.22 ± 0.062 | 3.31 ± 0.11
44 | VVNITHHELVPKHIRLS [RPB5] | 2.52 ± 0.065 | 2.89 ± 0.062 | 3.01 ± 0.064 | 3.01 ± 0.056
45 | CRLFFTELASKDNAIYN [YCS4] | 1.3 ± 0.077 | 1.51 ± 0.055 | 1.1 ± 0.16 | 1.32 ± 0.047
46 | DRLSLQDRQQLLPLVVS [ECM29] | 2 ± 0.051 | 2.06 ± 0.044 | 1.64 ± 0.08 | 1.84 ± 0.037
47 | ILSDSPLELSAPIGKHY [DIS3] | 1.71 ± 0.13 |  |  | 2.39 ± 0.17
48 | NFNLKPTKTLTTKERKK [PRP8] | 1.98 ± 0.049 | 2.54 ± 0.074 | 2.19 ± 0.075 | 2.12 ± 0.041
49 | KLKNENTDLKDIIQGNP [PCI8] | 2.82 ± 0.051 | 3.21 ± 0.084 | 2.75 ± 0.14 | 3.25 ± 0.089
50 | DKLLDFIRYDVKTPKKT [CSN12] | 2.73 ± 0.046 | 2.64 ± 0.045 | 2.2 ± 0.052 | 2.99 ± 0.053
51 | ELSVTGSAINHHRIFDS [YMR129W/POM152] | 3.02 ± 0.12 | 3.24 ± 0.1 | 2.91 ± 0.12 | 2.93 ± 0.052
52 | VREFQRRLAFLGIKVAE [BRR2] | 2.06 ± 0.12 | 1.17 ± 0.14 | 1.04 ± 0.23 | 1.17 ± 0.087
53 | KGSSLASAASEAIRDPK [SSN8] | 2.43 ± 0.053 | 2.62 ± 0.063 | 2.65 ± 0.065 | 2.99 ± 0.049
